Source: paper PMC3983144 (Bioconjugate chemistry, 2014)
Square brackets hold non-standard residues; d marks the D form. Nle = CCCC[C@H](N)C(=O)O

Biological target: melanocortin 1 receptor (mouse (endogenous in B16F10), UniProt Q01727 1-315)
Test: radioligand binding

Sequence of melanocortin 1 receptor (Q01727 whole entry, one chain of several): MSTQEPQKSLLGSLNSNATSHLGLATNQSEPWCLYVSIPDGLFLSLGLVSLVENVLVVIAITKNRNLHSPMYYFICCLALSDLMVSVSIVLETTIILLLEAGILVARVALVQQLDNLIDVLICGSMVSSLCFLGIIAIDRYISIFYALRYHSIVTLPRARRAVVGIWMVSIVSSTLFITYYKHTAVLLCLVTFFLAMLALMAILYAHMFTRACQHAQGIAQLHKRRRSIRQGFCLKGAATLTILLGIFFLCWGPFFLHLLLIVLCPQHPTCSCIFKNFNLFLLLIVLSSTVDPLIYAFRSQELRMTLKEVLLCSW

IC50: 2.19 ± 0.54 nM
B1: Ac-Cys-Nle-Asp-His-D-Phe-Arg-Trp-Gly-Lys-NH2 (peptide)
chain: Ac-C[Nle]DH[dF]RWGK-NH2
SMILES: CCCC[C@H](NC(=O)[C@H](CS)NC(C)=O)C(=O)N[C@@H](CC(=O)O)C(=O)N[C@@H](Cc1c[nH]cn1)C(=O)N[C@H](Cc1ccccc1)C(=O)N[C@@H](CCCNC(=N)N)C(=O)N[C@@H](Cc1c[nH]c2ccccc12)C(=O)NCC(=O)N[C@@H](CCCCN)C(N)=O
